B1: ARC1167 (mixed)
RNA: ACAGGCAAGUAAUUGGGGAGUGCGGGCGGGGUGU
modifications: deoxy A,G; 2'-OMe C,U; PS 28-29 [PS linkage 28-29; 2'-OMe C,U at 2,6,10,13,14,21,23,27,32,34; all A,G 2'-deoxy]
B2: ARC1156 (mixed)
RNA: B1 RNA
modifications: deoxy A,G; 2'-OMe C,U; PS 11-12 [PS between 11-12; 2'-OMe C,U at 2,6,10,13,14,21,23,27,32,34; deoxy A,G at all other positions]
B3: ARC1165 (mixed)
RNA: B1 RNA
modifications: deoxy A,G; 2'-OMe C,U; PS 26-27 [PS between 26-27; 2'-OMe C,U at 2,6,10,13,14,21,23,27,32,34; deoxy A,G at all other positions]
B4: ARC1159 (mixed)
RNA: B1 RNA
modifications: deoxy A,G; 2'-OMe C,U; PS 14-15 [PS between 14-15; 2'-OMe C,U at 2,6,10,13,14,21,23,27,32,34; deoxy A,G at all other positions]
B5: ARC1158 (mixed)
RNA: B1 RNA
modifications: deoxy A,G; 2'-OMe C,U; PS 13-14 [PS between 13-14; 2'-OMe C,U at 2,6,10,13,14,21,23,27,32,34; deoxy A,G at all other positions]
B6: ARC1166 (mixed)
RNA: B1 RNA
modifications: deoxy A,G; 2'-OMe C,U; PS 27-28 [PS between 27-28; 2'-OMe C,U at 2,6,10,13,14,21,23,27,32,34; deoxy A,G at all other positions]
B7: ARC1168 (mixed)
RNA: B1 RNA
modifications: deoxy A,G; 2'-OMe C,U; PS 32-33 [PS linkage 32-33; 2'-OMe C,U at 2,6,10,13,14,21,23,27,32,34; all A,G 2'-deoxy]
B8: ARC1164 (mixed)
RNA: B1 RNA
modifications: deoxy A,G; 2'-OMe C,U; PS 22-23 [PS between 22-23; 2'-OMe C,U at 2,6,10,13,14,21,23,27,32,34; deoxy A,G at all other positions]
B9: ARC1157 (mixed)
RNA: B1 RNA
modifications: deoxy A,G; 2'-OMe C,U; PS 12-13 [PS between 12-13; 2'-OMe C,U at 2,6,10,13,14,21,23,27,32,34; deoxy A,G at all other positions]
B10: ARC1169 (mixed)
RNA: B1 RNA
modifications: deoxy A,G; 2'-OMe C,U; PS 33-34 [PS linkage 33-34; 2'-OMe C,U at 2,6,10,13,14,21,23,27,32,34; all A,G 2'-deoxy]
B11: ARC1155 (mixed)
RNA: B1 RNA
modifications: deoxy A,G; 2'-OMe C,U; PS 10-11 [PS between 10-11; 2'-OMe C,U at 2,6,10,13,14,21,23,27,32,34; deoxy A,G at all other positions]
B12: B10.min1 (ssRNA)
RNA: GGAGCGAAUCAUACACAAGAAGUGCUUCAUGCGGCAAACUGCAUGACGUCGAAUAGAUAUGCUCC
modifications: 2'-F C,U
B13: AMX86-G10 (ssRNA)
RNA: GGGAAAAGCGAAUCAUACACAAGAGUCAUGGCUUACAAUUGAAACAAGAGCUCGCGUGACACAUGCUCCGCCAGAGACCAACCGAGAA
modifications: 2'-F C and U, 2'-OH A and G
B14: AMX84-E12 (ssRNA)
RNA: GGGAAAAGCGAAUCAUACACAAGAAGUUUUUGUGCUCUGAGUACUCAGCGUCCGUAAGGGAUAUGCUCCGCCAGAGACCAACCGAGAA
modifications: 2'-F C and U, 2'-OH A and G
B15: AMX84-C11 (ssRNA)
RNA: GGGAAAAGCGAAUCAUACACAAGAAUGGUCGGAAUCUCUGGCGCCACGCUGAGUAUAGACGGAAGCUCCGCCAGAGACCAACCGAGAA
modifications: 2'-F C and U, 2'-OH A and G
B16: AMX86-B10 (ssRNA)
RNA: GGGAAAAGCGAAUCAUACACAAGAGAACGAGUAUAUUUGCGCUGGCGGAGAAGUCUCUCGAAGGGAGCUCCGCCAGAGACCAACCGAGAA
modifications: 2'-F C and U, 2'-OH A and G
B17: AMX91-B5 (ssRNA)
RNA: GGGAAAAGCGAAUCAUACACAAGACAGUGUAUGAGGAAGAUUACUUCCAUUCCUGAGCGGUUUUCGCUCCGCCAGAGACCAACCGAGAA
modifications: 2'-F C and U, 2'-OH A and G

Target: T1, IL-23 (human, p19/p40 heterodimer) (Homo sapiens, UniProt Q9NPF7;P29460 SEQ:20-189,SEQ:23-328)
T1 sequence (Q9NPF7 20-189, chain 1 of 2): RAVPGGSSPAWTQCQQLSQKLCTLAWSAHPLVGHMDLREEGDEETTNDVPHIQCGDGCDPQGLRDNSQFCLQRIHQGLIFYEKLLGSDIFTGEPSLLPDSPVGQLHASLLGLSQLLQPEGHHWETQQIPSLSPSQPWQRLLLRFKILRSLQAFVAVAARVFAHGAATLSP
T1 sequence (P29460 23-328, chain 2 of 2): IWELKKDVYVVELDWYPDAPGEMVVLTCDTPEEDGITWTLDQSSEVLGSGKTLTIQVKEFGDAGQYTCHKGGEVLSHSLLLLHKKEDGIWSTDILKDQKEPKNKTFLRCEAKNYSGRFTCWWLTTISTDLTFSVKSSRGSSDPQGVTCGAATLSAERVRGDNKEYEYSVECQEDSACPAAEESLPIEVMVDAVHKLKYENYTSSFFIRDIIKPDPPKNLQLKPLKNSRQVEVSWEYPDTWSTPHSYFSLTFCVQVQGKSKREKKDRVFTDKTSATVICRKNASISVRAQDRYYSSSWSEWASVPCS
Assay: filter; -tRNA
Conditions: tags: R&D Systems, carrier free
Procedure: These molecules were gel purified and assayed for IL-23 binding using the dot blot assay as described above and compared to each other and to the parent molecule, ARC979. An 8 point IL-23 titration (0 nM to 300 nM, 3 fold serial dilutions) was used in the binding assay.

Point of comparison: B1, Kd 107 nM. Against it:
- B2 — 3.4-fold higher, 369 nM
- B3 — 1.9-fold lower, 55 nM
- B4 — within 1.5-fold, 77 nM
- B5 — 1.8-fold higher, 192 nM
- B6 — within 1.5-fold, 132 nM
- ACAGGCAAGUAAUUGGGGAGUGCGGGCGGGGUGU (mixed, deoxy A,G; 2'-OMe C,U; PS 7-8) [ARC1152] — 2.2-fold higher, 232 nM
- B7 — within 1.5-fold, 82 nM
- ACAGGCAAGUAAUUGGGGAGUGCGGGCGGGGUGU (mixed, deoxy A,G; 2'-OMe C,U; PS 8-9) [ARC1153] — 1.6-fold higher, 174 nM
- B8 — within 1.5-fold, 79 nM
- B9 — 1.6-fold lower, 69 nM
- B10 — within 1.5-fold, 74 nM
- B11 — 1.6-fold higher, 168 nM
- ACAGGCAAGUAAUUGGGGAGUGCGGGCGGGGUGU (mixed, deoxy A,G; 2'-OMe C,U; PS 6-7) [ARC1151] — within 1.5-fold, 142 nM

Target: T1, IL-23 (human, p19/p40 heterodimer)
Assay: filter; 100 nM IL-23
Conditions: tags: R&D Systems, carrier free

Point of comparison: GGAAUCAUACCGAGAGGUAUUACCCCGAAAGGGGACCAUUCC (ssRNA, 2'-F C,U) [Type 2.1], binding signal 5.2 +/- ratio. Against it:
- GGAGUCUGAGUACUCAGCGUCCGUAAGGGAUAUGCUCCGCCAGACUCC (ssRNA, 2'-F C,U) [A10.min2] — higher, 6 +/- ratio
- B12 — higher, 33.9 +/- ratio

Target: T1, IL-23 (human, p19/p40 heterodimer)
Assay: cell_activity; TransAM STAT3, PHA blasts
Conditions: tags: R&D Systems
Procedure: In summary, the cell-based assay was conducted by isolating the peripheral blood mononuclear cells (PBMCs) from whole blood using a Histopaque gradient (Sigma, St. Louis, Mo.). The PBMCs were cultured for 3 to 5 days at 37° C./5% CO₂ in Peripheral Blood Medium (Sigma) which contains PHA, supplemented with IL-2 (100 units/mL) (R&D Systems, Minneapolis, Minn.), to generate PHA Blasts. To test IL-23 aptamers, the PHA Blasts were washed twice with 1×PBS, then serum starved for four hours in RPMI, 0.20% FBS. After serum starvation, approximately 2 million cells were aliquotted into appropriately labeled eppendorf tubes. hIL-23 at a final constant concentration of 3 ng/mL (R&D Systems, Minneapolis, Minn.) was combined with a dilution series of various IL-23 aptamers as described in Example 1, and the cytokine/aptamer mixture was added to the aliquotted cells in a final volume of 100 μl and incubated at 37° C. for 10-12 minutes. The incubation reaction was stopped by adding 1 mL of ice-cold PBS with 1.5 mM Na₃VO₄. Cell lysates were made using the lysis buffer provided by the TransAM™ STAT 3 assay following the manufacturer's instructions. FIG. 20 depicts a flow summary of the protocol used for the cell based assay.
Full length clones from the rRfY selection described in Example 1A, and select minimized rRfY clones that were described in Example 2A. 1, were tested using the TransAM™ STAT3 activation assay. Table 34 summarizes the cell based assay data for IL-23 full length aptamers generated from the rRfY selections described in Example 1A. 1, each compared to the activity of their respective parent (full length) clone.

Point of comparison: B16, IC50 800 nM. Against it:
- B13 — 2.5-fold higher, ~2000 nM
- B14 — higher, > 1000 nM
- B15 — the same, 800 nM
- B17 — within 1.5-fold, 1000 nM

From US20060193821, “Aptamers to the human IL-12 cytokine family and their use as autoimmune disease therapeutics” (published 2006)
